Earlier results, collected in article PMC4843017.

Molecular target: Ndc80 complex (Homo sapiens) (UniProt O14777)
Assay: isothermal titration calorimetry

Ndc80 complex (Homo sapiens), sequence (O14777 whole entry, chain 1 of 4): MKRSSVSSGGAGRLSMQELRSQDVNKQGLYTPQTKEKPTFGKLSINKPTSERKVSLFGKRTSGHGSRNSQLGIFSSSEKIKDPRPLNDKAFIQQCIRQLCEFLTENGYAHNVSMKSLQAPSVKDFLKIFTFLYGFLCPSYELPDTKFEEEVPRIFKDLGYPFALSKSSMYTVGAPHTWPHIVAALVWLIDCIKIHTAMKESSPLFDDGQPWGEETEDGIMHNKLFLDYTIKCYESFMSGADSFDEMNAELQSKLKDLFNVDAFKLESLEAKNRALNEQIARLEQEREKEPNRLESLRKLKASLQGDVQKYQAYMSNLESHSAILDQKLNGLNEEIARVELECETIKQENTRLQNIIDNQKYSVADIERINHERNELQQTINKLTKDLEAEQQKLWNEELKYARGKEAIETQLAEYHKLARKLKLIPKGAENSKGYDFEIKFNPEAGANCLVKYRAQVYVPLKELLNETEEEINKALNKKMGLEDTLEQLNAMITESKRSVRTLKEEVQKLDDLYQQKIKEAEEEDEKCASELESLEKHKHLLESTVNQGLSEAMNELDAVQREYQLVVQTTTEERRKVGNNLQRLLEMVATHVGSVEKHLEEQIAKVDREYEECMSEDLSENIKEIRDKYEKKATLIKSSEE
Ndc80 complex (Homo sapiens), sequence (Q9BZD4 whole entry, chain 2 of 4, further chain): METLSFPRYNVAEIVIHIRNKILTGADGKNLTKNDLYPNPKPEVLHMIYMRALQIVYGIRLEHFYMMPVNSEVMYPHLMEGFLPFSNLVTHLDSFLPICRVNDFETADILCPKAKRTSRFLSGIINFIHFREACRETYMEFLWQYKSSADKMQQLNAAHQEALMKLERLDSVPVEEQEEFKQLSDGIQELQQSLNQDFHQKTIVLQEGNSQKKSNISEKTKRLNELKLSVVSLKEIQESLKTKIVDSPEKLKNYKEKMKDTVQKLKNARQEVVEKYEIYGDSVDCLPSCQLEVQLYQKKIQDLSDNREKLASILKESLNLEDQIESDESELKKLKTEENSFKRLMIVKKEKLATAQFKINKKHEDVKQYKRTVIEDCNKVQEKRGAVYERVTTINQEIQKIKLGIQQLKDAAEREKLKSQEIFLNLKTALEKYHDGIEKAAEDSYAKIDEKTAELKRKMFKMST
Ndc80 complex (Homo sapiens), sequence (Q8NBT2 whole entry, chain 3 of 4, further chain): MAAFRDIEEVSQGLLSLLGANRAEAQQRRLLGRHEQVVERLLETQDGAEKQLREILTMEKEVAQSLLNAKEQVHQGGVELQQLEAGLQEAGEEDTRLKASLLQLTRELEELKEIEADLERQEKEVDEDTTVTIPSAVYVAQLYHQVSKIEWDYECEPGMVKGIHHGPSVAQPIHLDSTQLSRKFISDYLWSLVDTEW
Ndc80 complex (Homo sapiens), sequence (Q9HBM1 whole entry, chain 4 of 4, further chain): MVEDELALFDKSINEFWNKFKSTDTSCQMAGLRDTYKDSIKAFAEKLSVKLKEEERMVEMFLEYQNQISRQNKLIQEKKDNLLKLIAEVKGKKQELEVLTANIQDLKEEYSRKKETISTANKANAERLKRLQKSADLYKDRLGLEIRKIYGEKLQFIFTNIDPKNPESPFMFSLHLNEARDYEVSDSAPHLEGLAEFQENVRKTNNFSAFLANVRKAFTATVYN

Kd: 10 nM
Substance: Mis12 complex (from UniProt Q9H081)
